Measured values from publication PMC7185751 (Biochimica et Biophysica Acta. Proteins and Proteomics, 2014).
Read-outs that look alike come from different tables or passages of the source. Where a SMILES comes first, the peptide text is derived from it.

Key:
[1] = molecular target: T1, His57 (UniProt position 57, VVTAAHCGVTT); assay: NMR; settings: 25 °C; hemiketal complex with the glyoxal inhibitor Z-Ala-Ala-Phe-COCHO; cited from earlier work
[2] = molecular target: T1, His57; settings: cited from earlier work
[3] = 13C-NMR pH titration of free inhibitor; format: physicochemical; settings: carboxyl group, determined by 13C-NMR
[4] = molecular target: T2, α-chymotrypsin (Bos taurus, UniProt P00766); settings: from pH 8 to 3, chymotrypsin; cited from earlier work
[5] = tested on: histidine-57 in α-chymotrypsin; settings: cited from earlier work
[6] = molecular target: T2, α-chymotrypsin; settings: from pH 7.2 to 3.2 or 10.2; cited from earlier work

alpha-chymotrypsin (Bos taurus (inferred; the article only says commercial alpha-chymotrypsin from Sigma))
pKa [1]: > 11
pKa ([2]; complex with the aldehyde inhibitor Acetyl-Leu-Phe-CHO (hemiacetal)): 6.5
pKa ([2]; free enzyme): 6.7

CC(NC(=O)OCc1ccccc1)C(=O)NC(C)C(=O)NC(Cc1ccccc1)[13C](=O)O (stereo not drawn) [ZAAF-^13COOH]
pKa [3]: 3.52 ± 0.03

O=C[C@H](Cc1ccccc1)NC(=O)c1ccccc1 [Bz-Phe-CHO]
fold increase in Ki [4]: 4 fold

delta-chymotrypsin (Bos taurus (inferred))
pKa ([2]; free enzyme): 7.5

CC(=O)N[C@@H](CC(C)C)C(=O)N[C@H](C=O)Cc1ccccc1 [Acetyl-Leu-Phe-CHO] (Ac-Leu-Phe-aldehyde)
histidine pKa in the complex with α-chymotrypsin [5]: 6.5

C[C@H](NC(=O)OCc1ccccc1)C(=O)N1CCC[C@H]1C(=O)N[C@@H](Cc1ccccc1)C(=O)C=O [ZAPF-COCHO]
change of hemiketal formation [6]: decreases

chymotrypsin (activation form not specified in the quoting sentence) (Bos taurus (inferred))
pKa ([2]; negatively charged tetrahedral adduct with peptidyl boronic acid inhibitors): > 10
